# T1: chimpanzee PSMA, full length (Pan troglodytes, UniProt Q04609 1-750 (human entry))
# T1 construct: On transfected HEK293F cells; also called chimp PSMA; H2Q3K5_PANTR
# T1 chain: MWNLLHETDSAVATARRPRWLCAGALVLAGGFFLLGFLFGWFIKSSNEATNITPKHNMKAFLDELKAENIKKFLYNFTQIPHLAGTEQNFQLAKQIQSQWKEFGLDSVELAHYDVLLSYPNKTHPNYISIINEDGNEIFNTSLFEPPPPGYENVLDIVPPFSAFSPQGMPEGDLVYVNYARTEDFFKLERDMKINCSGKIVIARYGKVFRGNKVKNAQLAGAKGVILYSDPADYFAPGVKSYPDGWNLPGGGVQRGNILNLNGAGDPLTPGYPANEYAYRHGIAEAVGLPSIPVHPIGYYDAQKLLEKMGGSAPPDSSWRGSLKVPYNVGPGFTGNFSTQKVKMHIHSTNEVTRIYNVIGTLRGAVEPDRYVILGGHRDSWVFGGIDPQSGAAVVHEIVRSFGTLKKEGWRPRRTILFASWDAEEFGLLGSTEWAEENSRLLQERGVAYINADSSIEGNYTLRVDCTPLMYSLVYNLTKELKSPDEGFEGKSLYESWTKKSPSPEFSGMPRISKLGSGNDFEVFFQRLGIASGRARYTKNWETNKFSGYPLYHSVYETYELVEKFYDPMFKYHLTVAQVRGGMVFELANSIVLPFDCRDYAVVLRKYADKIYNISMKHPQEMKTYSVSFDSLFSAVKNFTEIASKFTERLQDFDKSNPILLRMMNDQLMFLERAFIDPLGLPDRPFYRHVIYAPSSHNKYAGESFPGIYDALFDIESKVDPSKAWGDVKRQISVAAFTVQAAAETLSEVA
# B1: PS3B25 (bispecific antibody, human IgG4 S228P, kappa, lambda, F234A L235A)
# heavy 1: not shown
# light 1: not shown
# heavy 2: EVQLVESGGGLVQPGGSLRLSCAASGFTFNTYAMNWVRQAPGKGLEWVARIRSKYNNYATYYAASVKGRFTISRDDSKNSLYLQMNSLKTEDTAVYYCARHGNFGNSYVSWFAYWGQGTLVTVSSASTKGPSVFPLAPCSRSTSESTAALGCLVKDYFPEPVTVSWNSGALTSGVHTFPAVLQSSGLYSLSSVVTVPSSSLGTKTYTCNVDHKPSNTKVDKRVESKYGPPCPPCPAPEAAGGPSVFLFPPKPKDTLMISRTPEVTCVVVDVSQEDPEVQFNWYVDGVEVHNAKTKPREEQFNSTYRVVSVLTVLHQDWLNGKEYKCKVSNKGLPSSIEKTISKAKGQPREPQVYTLPPSQEEMTKNQVSLTCLVKGFYPSDIAVEWESNGQPENNYKTTPPVLDSDGSFLLYSKLTVDKSRWQEGNVFSCSVMHEALHNHYTQKSLSLSLGK
# light 2: QTVVTQEPSLTVSPGGTVTLTCRSSTGAVTTSNYANWVQQKPGQAPRGLIGGTNKRAPGTPARFSGSLLGGKAALTLSGVQPEDEAEYYCALWYSNLWVFGGGTKLTVLGQPKAAPSVTLFPPSSEELQANKATLVCLISDFYPGAVTVAWKADSSPVKAGVETTTPSKQSNNKYAASSYLSLTPEQWKSHRSYSCQVTHEGSTVEKTVAPTECS
# notes: IgG4 PAA; also called PSMB87 x CD3B219
# Target: T1, chimpanzee PSMA, full length
# Experiment: flow cytometry, bispecific antibody titrated on chimp PSMA (PSMG9) HEK cells, anti-human kappa light chain PE
# Method: PSMA×CD3 bispecific antibodies were tested for binding to PSMA positive cell lines LNCAP, human PSMA-HEK, Chimpanzee-PSMA-HEK and Cynomolgous monkey PSMA-HEK. To assess the binding capabilities of the PSMA bispecific antibodies, the cell-binding assay was utilized (described previously). Briefly, PSMA expressing tumor cells are bound by bispecific antibodies at known concentrations and the bound antibody is detected by an anti-human kappa light chain PE conjugated detection reagent (Invitrogen). The Mean Fluorescents Intensity (MFI) is the measure of bound bispecific antibody. The MFI is converted to a relative EC₅₀. EC₅₀ is a commonly used dose-response curve, where the half maximal effective concentration or the EC₅₀ point is defined as the inflection point of the curve. EC₅₀ s were determined by measuring cell bound bispecific and known concentrations. […] The dose response curves were then diluted down to that of background or no bispecific binding. The inflection point of this curve reflects the EC₅₀ point. The calculated EC₅₀ is determined by taking the ug/ml amount of bispecific antibody at the EC₅₀ point and converting it to a molarity value based on the MW of the bispecific antibody. Bispecific antibodies were normalized for protein concentration and then incubated with the same number of cells expressing either human or cyno PSMA. […]
binder,measurement,value
B1,binding result,binds

# From US20200024360A1 (Janssen / Centocor, published 2020)
